Substrate in data set [1]: O=P(O)(O)OC[C@H]1OC(O)[C@H](O)[C@@H](O)[C@@H]1O
Put plainly: cells, lysate or membranes named. The settings on record: Line-Weaver Burk analysis, pH 7.5.

Substrate in data set [2]: NC(=O)c1ccc[n+]([C@@H]2O[C@H](COP(=O)([O-])OP(=O)(O)OC[C@H]3O[C@@H](n4cnc5c(N)ncnc54)[C@H](O)[C@@H]3O)[C@@H](O)[C@H]2O)c1
Put plainly: Km and Vmax of recombinant RINO1 (Biogel 0.5A purified, Line-Weaver Burk analysis). In kind it is biochemical, Oryza sativa. The settings on record: other: recombinant RINO1, expressed in E. coli BL21 (DE3), pH 7.5. How it is done:
(§1) The cDNA for RINO1 and PINO1 were subcloned into suitable cloning sites of the bacterial expression vector pET 20B (+). The resulting plasmids were introduced into the host strain E. coli BL-21 (DE3). The bacteria were grown in LB medium up to A600 of 0.5-absorbance unit and induced by 0.5 mM IPTG for 6 hours at 30° C. The bacteria were collected by centrifugation and lysed by sonication in a buffer containing 20 mM Tris-HCl, pH 7.5. 10 mM each of NH4Cl and ME, 2 mM PMSF. The lysed extracts were centrifuged and protein from both soluble and membrane fractions were analyzed by 10% SDS-PAGE according to Lammeli (Nature, 227, 660-605, 1970) followed by western blot for immunodetection. The separated proteins were blotted onto PVDF membrane and the blot was probed with rabbit anti L-myo-inositol 1-phosphate synthase antibody (1:500) raised against purified recombinant L-myo-inositol 1-phosphate synthase of Entamoeba (Lohia et al, Mol. Biochem. Parasitol. 98, 67-79, 1999) or purified cytosolic L myo-inositol 1-phosphate […] from Oryza leaves. Bound antibody was detected by the chemiluminiscence (kit from Amersham Life Sciences). […] The expressed RINO1 and PINO1 proteins were solubilized from the pellet fractions in solubilization buffer (8M urea, 0.5 M NaCl, 20 mM Tris-HCl pH 7.5, 10 mM ME, 2 mM PMSF) kept for 30 minutes at room temperature. […]

Substrate in data set [3]: NC(=O)c1ccc[n+]([C@@H]2O[C@H](COP(=O)([O-])OP(=O)(O)OC[C@H]3O[C@@H](n4cnc5c(N)ncnc54)[C@H](O)[C@@H]3O)[C@@H](O)[C@H]2O)c1
The data set is described as follows: Km and Vmax of recombinant PINO1 (Biogel 0.5A purified, Line-Weaver Burk analysis). In kind it is biochemical, Porteresia coarctata. The settings on record: other: recombinant PINO1, expressed in E. coli BL21 (DE3), pH 7.5. How it is done: as §1

The Km is the concentration of substrate that gives half-maximal velocity.

B1: Oryza sativa L-myo-inositol 1-phosphate synthase RINO1, recombinant (GenBank AB012107) (Oryza sativa Japonica Group) (protein)
chain: MFIESFRVESPHVRYGAAEIESDYQYDTTELVHESHDGASRWIVRPKSVRYNFRTTTTVPKLGVMLVGWGGNNGSTLTAGVIANREGISWATKDKVQQANYYGSLTQASTIRVGSYNGEEIYAPFKSLLPMVNPDDLVFGGWDISNMNLADAMTRAKVLDIDLQKQLRPYMESMVPLPGIYDPDFIAANQGSRANNVIKGTKKEQMEQIIKDIREFKEKSKVDKVVVLWTANTERYSNVCVGLNDTMENLLASVDKNEAEISPSTLYAIACVMEGIPFINGSPQNTFVPGLIDLAIKNNCLIGGDDFKSGQTKMKSVLVDFLVGAGIKPTSIVSYNHLGNNDGMNLSAPQTFRSKEISKSNVVDDMVSSNAILYELGEHPDHVVVIKYVPYVGDSKRAMDEYTSEIFMGGKSTIVLHNTCEDSLLAAPIILDLVLLAELSTRIQLKAEGEEKFHSFHPVATILSYLTKAPLVPPGTPVVNALAKQRAMLENIMRACVGLAPENNMILEYK
notes: homotrimer
Take B1: the Michaelis constant (Km) in data set [1] (other: recombinant RINO1, expressed in E. coli BL21 (DE3)) was determined as 3000 µM; in data set [2] it was 188 µM.

B2: Porteresia coarctata L-myo-inositol 1-phosphate synthase PINO1, recombinant (GenBank AF 412340) (Oryza coarctata) (protein)
chain: MFIESFRVESPHVRYGAAEIESEYRYDTTELVHESHDGASRWVVRPKSVQYHFRTSTTVPKLGVMLVGWGGNNGSTLTAGVIASREGISWATKDKVQQANYYGSLTQASTIRVGSYNGEEIYAPFKSLLPMVNPDDLVFGGWDISNMNLADAMTRAKVLDIDLQKQLRPYMESWCLSLASMIPTSSPLTRDPARTMSSREPRRSRWGRSSKDIREFKENNKMDKAVVLWTANTERYNNCLCLGLMTNGKPSASVDRNQAEISPSTLYCHCLASLEGVRSITGALKKKSWPGIDDLAIKKKLPDPGGLIQKRGKPKKKTGLVDFLMGAGIKPTSIVSYNHLGNNDGTNLSAPQTFRSKEISKSSVVDDMVSSNAILYEPGEHPDHVVVIKYVPYVGDSKRAMDEYTSEIFMGGKNTIVLHNTCEDSLLAAPIILDLVLLAELSTRIQLKGEGEEKFHSFHPVATILSYLTKAPLVPPGTPVVNALAKQRAMLENIMRACVGLAPENNMILEYK
notes: homotrimer
Regarding B2, the Km was 2500 µM in data set [1] (other: recombinant PINO1, expressed in E. coli BL21 (DE3)) and 166 µM in data set [3].

The values above are taken from patent US20060148059A1, “Salt tolerant l-myo-inositol 1-phosphate synthase and the process of obtaining the same” (priority 2002, published 2006).
